The text below walks through data of patent US20190167710A1 (UNIVERSITY OF PITTSBURGH OF THE COMMONWEALTH SYSTEM OF …, published 2019).

Assay [1] has as its target T1, anaplastic lymphoma kinase (ALK), human, endogenous in THP1 cells (human, UniProt Q9UM73 19-1620, limits assumed).
T1 construct: Endogenous protein in lysates of human THP1 monocytes; also called ALK Receptor Tyrosine Kinase
In words: co-immunoprecipitation from THP1 cells after 3'3'-cGAMP or c-di-AMP (10 µg/ml, 16 h). Here is the method: (§1) Concentrations of proteins in the supernatant were determined by bicinchoninic acid assay. […] Following incubation, agarose/sepharose beads were washed extensively with PBS and proteins were eluted by boiling in 2× sodium dodecyl sulfate (SDS) sample buffer before SDS-PAGE electrophoresis.
(§2) To elucidate the possible role of ALK in the regulation of the STING signaling pathway, we tested whether ALK promotes the phosphorylation of core components of the STING pathway (STING, TBK1, and cGAS) through protein-protein interaction using co-immunoprecipitation techniques.

Assay [2] addresses T2, anaplastic lymphoma kinase (ALK), mouse, endogenous in iBMDMs and RAW264.7 cells (mouse, UniProt P97793 19-1621, limits assumed).
T2 construct: Endogenous protein in lysates of mouse macrophage lines (co-immunoprecipitation); also called ALK Receptor Tyrosine Kinase
The experiment in a line: co-immunoprecipitation from iBMDMs and RAW264.7 cells after 3'3'-cGAMP or c-di-AMP (10 µg/ml, 16 h). The protocol: as §1, §2

T2 sequence (P97793 19-1621 limits assumed): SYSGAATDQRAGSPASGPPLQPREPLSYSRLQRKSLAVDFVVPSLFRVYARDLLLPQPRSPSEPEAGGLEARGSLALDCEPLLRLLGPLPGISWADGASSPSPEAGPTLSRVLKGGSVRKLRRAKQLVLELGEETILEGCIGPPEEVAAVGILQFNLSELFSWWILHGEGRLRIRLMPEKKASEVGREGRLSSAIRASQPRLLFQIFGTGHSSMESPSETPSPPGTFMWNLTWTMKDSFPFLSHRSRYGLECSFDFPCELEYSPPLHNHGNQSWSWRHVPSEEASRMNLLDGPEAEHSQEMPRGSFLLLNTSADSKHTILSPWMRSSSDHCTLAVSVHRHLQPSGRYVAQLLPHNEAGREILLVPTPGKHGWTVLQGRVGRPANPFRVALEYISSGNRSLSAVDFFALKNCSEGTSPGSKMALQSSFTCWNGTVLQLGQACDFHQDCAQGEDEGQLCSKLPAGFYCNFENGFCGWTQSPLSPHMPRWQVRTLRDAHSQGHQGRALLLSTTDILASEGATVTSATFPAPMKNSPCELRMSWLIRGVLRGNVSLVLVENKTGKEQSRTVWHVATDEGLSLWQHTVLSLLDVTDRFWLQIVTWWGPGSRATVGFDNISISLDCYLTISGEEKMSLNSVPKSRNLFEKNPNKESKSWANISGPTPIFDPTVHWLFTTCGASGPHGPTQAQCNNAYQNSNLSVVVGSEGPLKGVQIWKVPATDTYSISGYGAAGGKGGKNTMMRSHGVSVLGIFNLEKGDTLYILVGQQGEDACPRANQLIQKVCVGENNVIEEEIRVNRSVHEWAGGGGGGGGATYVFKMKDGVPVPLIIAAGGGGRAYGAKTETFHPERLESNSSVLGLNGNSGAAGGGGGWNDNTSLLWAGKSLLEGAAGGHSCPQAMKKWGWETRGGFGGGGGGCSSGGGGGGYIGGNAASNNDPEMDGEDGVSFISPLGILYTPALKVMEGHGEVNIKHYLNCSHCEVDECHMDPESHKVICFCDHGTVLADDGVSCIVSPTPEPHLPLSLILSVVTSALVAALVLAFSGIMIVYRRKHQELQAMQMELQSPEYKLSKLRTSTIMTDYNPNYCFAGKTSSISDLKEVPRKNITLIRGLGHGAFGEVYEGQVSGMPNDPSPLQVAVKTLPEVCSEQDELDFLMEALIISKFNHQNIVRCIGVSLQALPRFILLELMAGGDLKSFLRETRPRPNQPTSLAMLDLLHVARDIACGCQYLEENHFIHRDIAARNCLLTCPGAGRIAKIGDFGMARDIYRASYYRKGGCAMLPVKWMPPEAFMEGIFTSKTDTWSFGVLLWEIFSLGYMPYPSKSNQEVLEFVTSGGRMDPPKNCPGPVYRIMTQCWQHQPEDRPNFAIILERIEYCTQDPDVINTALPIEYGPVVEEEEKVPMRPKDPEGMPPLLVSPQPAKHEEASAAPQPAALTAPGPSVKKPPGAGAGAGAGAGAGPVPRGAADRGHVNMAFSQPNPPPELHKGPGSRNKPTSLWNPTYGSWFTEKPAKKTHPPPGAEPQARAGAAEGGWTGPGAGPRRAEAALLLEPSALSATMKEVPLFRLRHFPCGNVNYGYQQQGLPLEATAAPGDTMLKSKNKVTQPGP
T1 sequence (Q9UM73 19-1620 limits assumed): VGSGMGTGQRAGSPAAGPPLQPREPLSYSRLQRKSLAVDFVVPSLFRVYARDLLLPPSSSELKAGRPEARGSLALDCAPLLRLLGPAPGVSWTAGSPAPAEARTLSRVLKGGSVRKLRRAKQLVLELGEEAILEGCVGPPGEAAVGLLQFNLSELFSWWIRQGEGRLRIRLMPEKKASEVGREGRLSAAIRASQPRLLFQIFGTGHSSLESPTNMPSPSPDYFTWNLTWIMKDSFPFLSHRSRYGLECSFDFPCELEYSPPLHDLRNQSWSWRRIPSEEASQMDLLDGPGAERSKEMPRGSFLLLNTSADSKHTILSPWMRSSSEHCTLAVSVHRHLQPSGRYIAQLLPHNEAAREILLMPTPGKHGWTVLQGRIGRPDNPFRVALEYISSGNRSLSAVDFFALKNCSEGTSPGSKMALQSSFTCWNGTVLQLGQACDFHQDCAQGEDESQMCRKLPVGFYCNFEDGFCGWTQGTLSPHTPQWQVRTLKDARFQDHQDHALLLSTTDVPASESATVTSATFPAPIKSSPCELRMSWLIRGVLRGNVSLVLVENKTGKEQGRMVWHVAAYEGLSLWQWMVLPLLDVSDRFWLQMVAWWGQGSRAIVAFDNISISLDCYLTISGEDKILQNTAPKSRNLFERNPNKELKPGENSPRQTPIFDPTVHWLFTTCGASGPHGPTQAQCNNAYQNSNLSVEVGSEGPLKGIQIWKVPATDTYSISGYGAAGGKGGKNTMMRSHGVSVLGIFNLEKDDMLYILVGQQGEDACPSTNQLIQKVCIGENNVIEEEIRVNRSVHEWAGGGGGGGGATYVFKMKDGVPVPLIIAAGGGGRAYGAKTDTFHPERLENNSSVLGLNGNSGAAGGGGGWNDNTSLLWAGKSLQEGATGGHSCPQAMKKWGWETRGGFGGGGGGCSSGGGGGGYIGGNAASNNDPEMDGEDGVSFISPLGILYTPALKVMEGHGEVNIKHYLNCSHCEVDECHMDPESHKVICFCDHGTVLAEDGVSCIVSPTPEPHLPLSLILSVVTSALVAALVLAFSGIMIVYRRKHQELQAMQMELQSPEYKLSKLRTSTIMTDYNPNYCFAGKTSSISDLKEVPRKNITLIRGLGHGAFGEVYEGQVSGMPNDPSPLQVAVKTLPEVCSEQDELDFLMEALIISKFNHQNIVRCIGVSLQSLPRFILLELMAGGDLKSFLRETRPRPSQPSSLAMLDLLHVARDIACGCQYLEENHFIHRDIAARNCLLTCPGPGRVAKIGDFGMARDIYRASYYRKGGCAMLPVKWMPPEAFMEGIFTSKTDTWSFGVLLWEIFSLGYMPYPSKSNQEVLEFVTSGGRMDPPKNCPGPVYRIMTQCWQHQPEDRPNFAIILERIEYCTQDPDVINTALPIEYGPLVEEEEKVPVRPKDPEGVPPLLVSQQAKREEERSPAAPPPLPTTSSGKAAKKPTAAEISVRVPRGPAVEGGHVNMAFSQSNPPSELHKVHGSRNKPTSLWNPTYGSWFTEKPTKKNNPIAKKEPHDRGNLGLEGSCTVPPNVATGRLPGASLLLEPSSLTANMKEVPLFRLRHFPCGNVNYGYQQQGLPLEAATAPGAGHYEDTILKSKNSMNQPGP

B1: TANK-binding kinase 1 (TBK1), human, endogenous in THP1 cells (enzyme, UniProt Q9UHD2 1-729, looked up)
chain: MQSTSNHLWLLSDILGQGATANVFRGRHKKTGDLFAIKVFNNISFLRPVDVQMREFEVLKKLNHKNIVKLFAIEEETTTRHKVLIMEFCPCGSLYTVLEEPSNAYGLPESEFLIVLRDVVGGMNHLRENGIVHRDIKPGNIMRVIGEDGQSVYKLTDFGAARELEDDEQFVSLYGTEEYLHPDMYERAVLRKDHQKKYGATVDLWSIGVTFYHAATGSLPFRPFEGPRRNKEVMYKIITGKPSGAISGVQKAENGPIDWSGDMPVSCSLSRGLQVLLTPVLANILEADQEKCWGFDQFFAETSDILHRMVIHVFSLQQMTAHKIYIHSYNTATIFHELVYKQTKIISSNQELIYEGRRLVLEPGRLAQHFPKTTEENPIFVVSREPLNTIGLIYEKISLPKVHPRYDLDGDASMAKAITGVVCYACRIASTLLLYQELMRKGIRWLIELIKDDYNETVHKKTEVVITLDFCIRNIEKTVKVYEKLMKINLEAAELGEISDIHTKLLRLSSSQGTIETSLQDIDSRLSPGGSLADAWAHQEGTHPKDRNVEKLQVLLNCMTEIYYQFKKDKAERRLAYNEEQIHKFDKQKLYYHATKAMTHFTDECVKKYEAFLNKSEEWIRKMLHLRKQLLSLTNQCFDIEEEVSKYQEYTNELQETLPQKMFTASSGIKHTMTPIYPSSNTLVEMTLGMKKLKEEMEGVVKELAENNHILERFGSLTMDGGLRNVDCL
notes: Endogenous protein in cell lysates; also called TBK1/NAK
B1: in assay [1], the binding result was “no binding”.

B2: stimulator of interferon genes (STING), mouse, endogenous in iBMDMs and RAW264.7 cells (other, UniProt Q3TBT3 1-378, looked up)
chain: MPYSNLHPAIPRPRGHRSKYVALIFLVASLMILWVAKDPPNHTLKYLALHLASHELGLLLKNLCCLAEELCHVQSRYQGSYWKAVRACLGCPIHCMAMILLSSYFYFLQNTADIYLSWMFGLLVLYKSLSMLLGLQSLTPAEVSAVCEEKKLNVAHGLAWSYYIGYLRLILPGLQARIRMFNQLHNNMLSGAGSRRLYILFPLDCGVPDNLSVVDPNIRFRDMLPQQNIDRAGIKNRVYSNSVYEILENGQPAGVCILEYATPLQTLFAMSQDAKAGFSREDRLEQAKLFCRTLEEILEDVPESRNNCRLIVYQEPTDGNSFSLSQEVLRHIRQEEKEEVTMNAPMTSVAPPPSVLSQEPRLLISGMDQPLPLRTDLI
notes: Endogenous protein in cell lysates
With B2, in assay [2], the binding result is “no binding”.

B3: cyclic-guanosine monophosphate-adenosine monophosphate (cGAMP) synthase (cGAS), human, endogenous in THP1 cells (enzyme, UniProt Q8N884 1-522, looked up)
chain: MQPWHGKAMQRASEAGATAPKASARNARGAPMDPTESPAAPEAALPKAGKFGPARKSGSRQKKSAPDTQERPPVRATGARAKKAPQRAQDTQPSDATSAPGAEGLEPPAAREPALSRAGSCRQRGARCSTKPRPPPGPWDVPSPGLPVSAPILVRRDAAPGASKLRAVLEKLKLSRDDISTAAGMVKGVVDHLLLRLKCDSAFRGVGLLNTGSYYEHVKISAPNEFDVMFKLEVPRIQLEEYSNTRAYYFVKFKRNPKENPLSQFLEGEILSASKMLSKFRKIIKEEINDIKDTDVIMKRKRGGSPAVTLLISEKISVDITLALESKSSWPASTQEGLRIQNWLSAKVRKQLRLKPFYLVPKHAKEGNGFQEETWRLSFSHIEKEILNNHGKSKTCCENKEEKCCRKDCLKLMKYLLEQLKERFKDKKHLDKFSSYHVKTAFFHVCTQNPQDSQWDRKDLGLCFDNCVTYFLQCLRTEKLENYFIPEFNLFSSNLIDKRSKEFLTKQIEYERNNEFPVFDEF
notes: as for B2
For B3, the binding result in assay [1] is reported as “no binding”.

B4: TANK-binding kinase 1 (TBK1), mouse, endogenous in iBMDMs and RAW264.7 cells (enzyme, UniProt Q9WUN2 1-729, looked up)
chain: MQSTSNHLWLLSDILGQGATANVFRGRHKKTGDLYAVKVFNNISFLRPVDVQMREFEVLKKLNHKNIVKLFAIEEETTTRHKVLIMEFCPCGSLYTVLEEPSNAYGLPESEFLIVLRDVVGGMNHLRENGIVHRDIKPGNIMRVIGEDGQSVYKLTDFGAARELEDDEQFVSLYGTEEYLHPDMYERAVLRKDHQKKYGATVDLWSVGVTFYHAATGSLPFRPFEGPRRNKEVMYKIITGKPSGAISGVQKAENGPIDWSGDMPLSCSLSQGLQALLTPVLANILEADQEKCWGFDQFFAETSDVLHRMVIHVFSLQHMTAHKIYIHSYNTAAVFHELVYKQTKIVSSNQELIYEGRRLVLELGRLAQHFPKTTEENPIFVTSREQLNTVGLRYEKISLPKIHPRYDLDGDASMAKAVTGVVCYACRTASTLLLYQELMRKGVRWLVELVKDDYNETVHKKTEVVITLDFCIRNIEKTVKVYEKLMKVNLEAAELGEISDIHTKLLRLSSSQGTIESSLQDISSRLSPGGLLADTWAHQEGTHPRDRNVEKLQVLLNCITEIYYQFKKDKAERRLAYNEEQIHKFDKQKLYYHATKAMSHFSEECVRKYEAFKDKSEEWMRKMLHLRKQLLSLTNQCFDIEEEVSKYQDYTNELQETLPQKMLAASGGVKHAMAPIYPSSNTLVEMTLGMKKLKEEMEGVVKELAENNHILERFGSLTMDGGLRNVDCL
notes: as for B1
As to B4, in assay [2], the binding result is “no binding”.

B5: TIR-domain-containing adapter-inducing interferon-β (TRIF), mouse, endogenous in iBMDMs and RAW264.7 cells (other, UniProt Q80UF7 1-732, looked up)
chain: MDNPGPSLRGAFGILGALERDRLTHLKHKLGSLCSGSQESKLLHAMVLLALGQDTEARVSLESLKMNTVAQLVAHQWADMETTEGPEEPPDLSWTVARLYHLLAEENLCPASTRDMAYQVALRDFASQGDHQLGQLQNEAWDRCSSDIKGDPSGFQPLHSHQGSLQPPSASPAVTRSQPRPIDTPDWSWGHTLHSTNSTASLASHLEISQSPTLAFLSSHHGTHGPSKLCNTPLDTQEPQLVPEGCQEPEEISWPPSVETSVSLGLPHEISVPEVSPEEASPILPDALAAPDTSVHCPIECTELSTNSRSPLTSTTESVGKQWPITSQRSPQVPVGDDSLQNTTSSSPPAQPPSLQASPKLPPSPLSSASSPSSYPAPPTSTSPVLDHSETSDQKFYNFVVIHARADEQVALRIREKLETLGVPDGATFCEEFQVPGRGELHCLQDAIDHSGFTILLLTASFDCSLSLHQINHALMNSLTQSGRQDCVIPLLPLECSQAQLSPDTTRLLHSIVWLDEHSPIFARKVANTFKTQKLQAQRVRWKKAQEARTLKEQSIQLEAERQNVAAISAAYTAYVHSYRAWQAEMNKLGVAFGKNLSLGTPTPSWPGCPQPIPSHPQGGTPVFPYSPQPPSFPQPPCFPQPPSFPQPPSFPLPPVSSPQSQSFPSASSPAPQTPGPQPLIIHHAQMVQLGVNNHMWGHTGAQSSDDKTECSENPCMGPLTDQGEPLLETPE
notes: Endogenous protein in cell lysates; also called TICAM-1
Take B5: in assay [2], the binding result is listed as “no binding”.
